Experimental data as given in publication PMC7181406.
Where “and” joins values, the source holds several entries; their conditions need not be identical. Identical values can stand only once. Like-named read-outs stand apart in the source and are kept apart here.

Legend:
Experiment in all cases: TIRF microscopy
[1] = biological target: taxol-stabilized microtubules assembled from porcine brain tubulin (porcine) (UniProt P02550)
[2] = biological target: taxol-stabilized microtubules assembled from porcine brain tubulin (porcine) (UniProt P02550); remark: listed apart in the source
[3] = biological target: taxol-stabilized microtubules assembled from porcine brain tubulin (porcine) (UniProt P02550); remark: listed apart in the source
[4] = biological target: taxol-stabilized microtubules assembled from porcine brain tubulin (porcine) (UniProt P02550); remark: listed apart in the source
[5] = biological target: taxol-stabilized microtubules assembled from porcine brain tubulin (porcine) (UniProt P02550); remark: listed apart in the source
[6] = biological target: taxol-stabilized microtubules assembled from porcine brain tubulin (porcine) (UniProt P02550); remark: listed apart in the source
[7] = biological target: taxol-stabilized microtubules assembled from porcine brain tubulin (porcine) (UniProt P02550); remark: listed apart in the source
[8] = biological target: taxol-stabilized microtubules assembled from porcine brain tubulin (porcine) (UniProt P02550); remark: listed apart in the source
[9] = biological target: taxol-stabilized microtubules assembled from porcine brain tubulin (porcine) (UniProt P02550); remark: listed apart in the source
[10] = biological target: taxol-stabilized microtubules assembled from porcine brain tubulin (porcine) (UniProt P02550); remark: listed apart in the source
[11] = biological target: taxol-stabilized microtubules assembled from porcine brain tubulin (porcine) (UniProt P02550); remark: listed apart in the source
[12] = biological target: taxol-stabilized microtubules assembled from porcine brain tubulin (porcine) (UniProt P02550); remark: listed apart in the source
[13] = biological target: taxol-stabilized microtubules assembled from porcine brain tubulin (porcine) (UniProt P02550); remark: listed apart in the source

Q: For “KIF5B_(1-560)-mScarlet (from UniProt P33176 1-560) (domain or fragment)”, which landing rate (motors μm^−1min^−1nM^−1) [1] is on record?
A: Its landing rate (motors μm^−1min^−1nM^−1) is 0.03.

Q: What about the landing rate (motors μm^−1min^−1nM^−1) [2] of the same substance?
A: The landing rate (motors μm^−1min^−1nM^−1) was 0.06.

Q: And the landing rate (motors μm^−1min^−1nM^−1) [3]?
A: The landing rate (motors μm^−1min^−1nM^−1) was 0.01 and 0.005.

Q: What about the landing rate (motors μm^−1min^−1nM^−1) [4] of the same substance?
A: The landing rate (motors μm^−1min^−1nM^−1) was 0.03.

Q: What about the landing rate (motors μm^−1min^−1nM^−1) [5] of the same substance?
A: Its landing rate (motors μm^−1min^−1nM^−1) is 0.05.

Q: What about the landing rate (motors μm^−1min^−1nM^−1) [6] of the same substance?
A: Its landing rate (motors μm^−1min^−1nM^−1) is 0.02.

Q: And the landing rate (motors μm^−1min^−1nM^−1) [7]?
A: Its landing rate (motors μm^−1min^−1nM^−1) is 0.07.

Q: And the landing rate (motors μm^−1min^−1nM^−1) [8]?
A: Its landing rate (motors μm^−1min^−1nM^−1) is 0.58.

Q: What about the landing rate (motors μm^−1min^−1nM^−1) [9] of the same substance?
A: Its landing rate (motors μm^−1min^−1nM^−1) is 2.72.

Q: And the landing rate (motors μm^−1min^−1nM^−1) [10]?
A: The landing rate (motors μm^−1min^−1nM^−1) was 0.11.

Q: Which landing rate (motors μm^−1min^−1nM^−1) [11] does the source give for “KIF5B_(K-insert)-mScarlet (from UniProt P33176 1-560) (domain or fragment)” here?
A: The landing rate (motors μm^−1min^−1nM^−1) was 0.83.

Q: What about the landing rate (motors μm^−1min^−1nM^−1) [10] of the same substance?
A: Its landing rate (motors μm^−1min^−1nM^−1) is 5.44.

Q: And the landing rate (motors μm^−1min^−1nM^−1) [12]?
A: The landing rate (motors μm^−1min^−1nM^−1) was 6.04.

Q: Which fluorescence intensity on microtubules [13] does the source give for “TMR-GST-dynein motor domain (SNAPf-GST-hDyn) (domain or fragment)” here?
A: The fluorescence intensity on microtubules was 13700 A.U.

Q: What about the fluorescence intensity on microtubules [10] of the same substance?
A: The fluorescence intensity on microtubules was 13200 A.U.

Q: Which fluorescence intensity on microtubules [10] does the source give for “p150-mScarlet (from UniProt Q14203-1 1-1278) (natural protein)” here?
A: The fluorescence intensity on microtubules was 44200 A.U.
